The values below come from article PMC4095729 (Alzheimer's Research & Therapy, 2014).

The target of this assay is T1, Aβ1-7 peptide (Homo sapiens (deposited entity)).
T1 construct: amyloid beta peptide (Aβ), cut from amyloid precursor protein (APP), residues 1-7; Additional file 1 names the peptide Aβ1-6; also called amyloid-β1-7; Aβ residues 1–7
T1 chain: DAEFRHD
As to the kind of experiment: crystal structure; 3D6 Fab co-crystallised with Aβ1-7 or Aβ1-40 peptide, crystals grown at 22 °C; the Aβ1-40 crystals in 200 mM Zn2+; data at 100 K. The settings on record: both partners purified.

B1: Recombinant 3D6 Fab (Fab, V domains shown)
VH: EVKLVESGGGLVKPGASLKLSCAASGFTFSNYGMSWVRQNSDKRLEWVASIRSGGGRTYYSDNVKGRFTISRENAKNTLYLQMSSLKSEDTALYYCVRYDHYSGSSDYWGQGTTVTVSS
VL: not shown
notes: also called Fab 3D6
On to B1, for which the binding result is recorded as “binds”.
